According to US20170145113A1 (Genentech, published 2017):

B1: combination mutant LC3.HC3 Fab (Fab, V domains shown)
VH: EVQLVQSGAEVKKPGASVKVSCKASGYKFTDSEMHWVRQAPGQGLEWIGGVDPETDGAAYNQKFKGRATITRDTSTSTAYLELSSLRSEDTAVYYCTRGYDYDYALDYWGQGTLVTVSS
VL: DIQMTQSPSSLSASVGDRVTITCRASSSVEFIHWYQQKPGKAPKPLISATSNLASGVPSRFSGSGSGTDFTLTISSLQPEDFATYYCQQWSSNPWTFGQGTKVEIK
notes: Fab
B2: combination mutant LC5.HC2 Fab (Fab, V domains shown)
VH: EVQLVQSGAEVKKPGASVKVSCKASGYTFRDSEMHWVRQAPGQGLEWIGGVDPETDGAAYNQKFKGRATITRDTSTSTAYLELSSLRSEDTAVYYCTRGYDYDYALDYWGQGTLVTVSS
VL: DIQMTQSPSSLSASVGDRVTITCRASSSVNFIHWYQQKPGKAPKPLISATSELASGVPSRFSGSGSGTDFTLTISSLQPEDFATYYCQQWSSNPWTFGQGTKVEIK
notes: Fab
B3: combination mutant LC4.HC5 Fab (Fab, V domains shown)
VH: EVQLVQSGAEVKKPGASVKVSCKASGYTFTDSELHWVRQAPGQGLEWIGGVDPETDGAAYNQKFKGRATITRDTSTSTAYLELSSLRSEDTAVYYCTRGYDYDYALDYWGQGTLVTVSS
VL: DIQMTQSPSSLSASVGDRVTITCRASSSVNFIHWYQQKPGKAPKPLISATSHLASGVPSRFSGSGSGTDFTLTISSLQPEDFATYYCQQWSSNPWTFGQGTKVEIK
notes: Fab
B4: combination mutant LC4.HC1 Fab (Fab, V domains shown)
VH: EVQLVQSGAEVKKPGASVKVSCKASGYTFKDSEMHWVRQAPGQGLEWIGGVDPETDGAAYNQKFKGRATITRDTSTSTAYLELSSLRSEDTAVYYCTRGYDYDYALDYWGQGTLVTVSS
VL: DIQMTQSPSSLSASVGDRVTITCRASSSVNFIHWYQQKPGKAPKPLISATSHLASGVPSRFSGSGSGTDFTLTISSLQPEDFATYYCQQWSSNPWTFGQGTKVEIK
notes: Fab
B5: combination mutant LC4.HC3 Fab (Fab, V domains shown)
VH: EVQLVQSGAEVKKPGASVKVSCKASGYKFTDSEMHWVRQAPGQGLEWIGGVDPETDGAAYNQKFKGRATITRDTSTSTAYLELSSLRSEDTAVYYCTRGYDYDYALDYWGQGTLVTVSS
VL: DIQMTQSPSSLSASVGDRVTITCRASSSVNFIHWYQQKPGKAPKPLISATSHLASGVPSRFSGSGSGTDFTLTISSLQPEDFATYYCQQWSSNPWTFGQGTKVEIK
notes: Fab
B6: combination mutant LC5.HC1 Fab (Fab, V domains shown)
VH: EVQLVQSGAEVKKPGASVKVSCKASGYTFKDSEMHWVRQAPGQGLEWIGGVDPETDGAAYNQKFKGRATITRDTSTSTAYLELSSLRSEDTAVYYCTRGYDYDYALDYWGQGTLVTVSS
VL: DIQMTQSPSSLSASVGDRVTITCRASSSVNFIHWYQQKPGKAPKPLISATSELASGVPSRFSGSGSGTDFTLTISSLQPEDFATYYCQQWSSNPWTFGQGTKVEIK
notes: Fab
B7: combination mutant LC4.HC2 Fab (Fab, V domains shown)
VH: EVQLVQSGAEVKKPGASVKVSCKASGYTFRDSEMHWVRQAPGQGLEWIGGVDPETDGAAYNQKFKGRATITRDTSTSTAYLELSSLRSEDTAVYYCTRGYDYDYALDYWGQGTLVTVSS
VL: DIQMTQSPSSLSASVGDRVTITCRASSSVNFIHWYQQKPGKAPKPLISATSHLASGVPSRFSGSGSGTDFTLTISSLQPEDFATYYCQQWSSNPWTFGQGTKVEIK
notes: Fab
B8: combination mutant LC3.HC5 Fab (Fab, V domains shown)
VH: EVQLVQSGAEVKKPGASVKVSCKASGYTFTDSELHWVRQAPGQGLEWIGGVDPETDGAAYNQKFKGRATITRDTSTSTAYLELSSLRSEDTAVYYCTRGYDYDYALDYWGQGTLVTVSS
VL: DIQMTQSPSSLSASVGDRVTITCRASSSVEFIHWYQQKPGKAPKPLISATSNLASGVPSRFSGSGSGTDFTLTISSLQPEDFATYYCQQWSSNPWTFGQGTKVEIK
notes: Fab

The binders below were run against T1, His-tagged human HtrA1 protease domain (human, UniProt Q92743 161-367) (assay: SPR (BIACORE T200), huHtrA1-PD-His captured by anti-His, Fab injected).
T1 construct: His-tagged protease domain; also called huHtrA1-PD-His; huHtrA1-PD
T1 sequence (Q92743 other isoform, or with tags, fused parts or gaps limits assumed): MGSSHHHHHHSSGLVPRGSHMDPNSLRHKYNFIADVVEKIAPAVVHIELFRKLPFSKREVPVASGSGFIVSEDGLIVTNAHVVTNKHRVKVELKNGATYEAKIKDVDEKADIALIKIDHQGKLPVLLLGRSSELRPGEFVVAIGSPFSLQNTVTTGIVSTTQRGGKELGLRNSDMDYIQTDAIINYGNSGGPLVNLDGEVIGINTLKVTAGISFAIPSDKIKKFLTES
Method: These combination mutants included both a variant light chain and a variant heavy chain. BIACORE™ kinetic analysis was performed (as described below in Section C) using the combination mutants.
To determine the binding affinity of selected Fab variants for HtrA1, SPR measurement with a BIACORE™ T200 instrument was performed. Briefly, a series S sensor chip CM5 was activated with 1-EDC and NHS reagents according to the supplier's instructions, and anti-His antibody was coupled to achieve 200-300 response units (RU), then following by blocking un-reacted groups with 1 M ethanolamine. For kinetics measurements, approximately 5 nM of huHtrA1-PD-His was first injected at 10 μl/min flow rate to capture approximately 100 RU at 2 different flow cells (FC), except for FC1 (which served as a reference). Next, 5-fold serial dilutions of Fab in HBS-P buffer (0.01M HEPES pH 7.4, 0.15M NaCl, 0.005% surfactant P20) from low (0.8 nM) to high (50 nM) were injected (flow rate: 30 μl/min). The binding responses on HtrA1 were corrected by subtracting of RU from a blank flow cell. The sensorgram was recorded and subject to reference and buffer subtraction before evaluating by BIACORE® T200 Evaluation Software (version 2.0). Association rates (kₒₙ) and dissociation rates (koff) were calculated using a simple one-to-one Langmuir binding model. The equilibrium dissociation constant (KD) was calculated as the ratio of koff/kₒₙ.
B1 gave a Kd of 0.0616 nM, a koff of 4.93e-05 s⁻¹ and a kon of 801000 M⁻¹ s⁻¹.
In the case of B2, the Kd is reported as 0.719 nM, the koff is reported as 0.000211 s⁻¹ and the kon is reported as 294000 M⁻¹ s⁻¹.
In the case of B3, the Kd is reported as 1.4 nM, the koff is reported as 0.000297 s⁻¹ and the kon is reported as 212000 M⁻¹ s⁻¹.
Binder B4 has a Kd of 0.852 nM, a koff of 0.000228 s⁻¹ and a kon of 268000 M⁻¹ s⁻¹.
Work on B5 yielded a Kd of 2.18 nM, a koff of 0.00024 s⁻¹ and a kon of 110000 M⁻¹ s⁻¹.
B6 gave a Kd of 1.1 nM, a koff of 0.00023 s⁻¹ and a kon of 208000 M⁻¹ s⁻¹.
Work on B7 yielded a Kd of 7.98 nM, a koff of 0.000222 s⁻¹ and a kon of 27800 M⁻¹ s⁻¹.
In the case of B8, the Kd is reported as 0.176 nM, the koff is reported as 0.000102 s⁻¹ and the kon is reported as 577000 M⁻¹ s⁻¹.
